Patent US10005829B2, “Synthetic linear apelin mimetics for the treatment of heart failure” (priority 2012, dated 2018)
[ ]: non-standard residue; d: D form. pGlu = O=C1CC[C@@H](C(=O)O)N1; dNle = CCCC[C@@H](N)C(=O)O; Aib = CC(C)(N)C(=O)O

T1: APJ receptor (human, UniProt P35414 1-380)
T1 sequence (looked up): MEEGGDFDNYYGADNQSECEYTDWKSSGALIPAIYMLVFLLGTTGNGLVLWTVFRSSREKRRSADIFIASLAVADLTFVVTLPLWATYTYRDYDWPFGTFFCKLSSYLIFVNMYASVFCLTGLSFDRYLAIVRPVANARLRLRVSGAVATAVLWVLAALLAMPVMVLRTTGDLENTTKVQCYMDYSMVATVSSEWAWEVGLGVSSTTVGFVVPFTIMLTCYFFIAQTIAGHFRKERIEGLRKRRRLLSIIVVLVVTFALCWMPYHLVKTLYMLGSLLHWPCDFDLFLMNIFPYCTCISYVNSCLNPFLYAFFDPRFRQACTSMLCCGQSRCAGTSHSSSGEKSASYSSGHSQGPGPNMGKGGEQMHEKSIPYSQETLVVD


target: T1, APJ receptor; assay: cell-based or functional assay

hAPJ Ca^2+ Flux EC50 | Binder
1060 nM | [pGlu]RPRL[dK]HKGP[dNle][dA][dF]-OH (SMILES CCCC[C@@H](NC(=O)[C@@H]1CCCN1C(=O)CNC(=O)[C@H](CCCCN)NC(=O)[C@H](Cc1c[nH]cn1)NC(=O)[C@@H](CCCCN)NC(=O)[C@H](CC(C)C)NC(=O)[C@H](CCCNC(=N)N)NC(=O)[C@@H]1CCCN1C(=O)[C@H](CCCNC(=N)N)NC(=O)[C@@H]1CCC(=O)N1)C(=O)N[C@H](C)C(=O)N[C@H](Cc1ccccc1)C(=O)O) [pE-R-P-R-L-k-H-K-G-P-nle-a-f-OH]
1.1 nM | [pGlu]RPRL[dA]HKGP[dNle][dP][dF]-OH (SMILES CCCC[C@@H](NC(=O)[C@@H]1CCCN1C(=O)CNC(=O)[C@H](CCCCN)NC(=O)[C@H](Cc1c[nH]cn1)NC(=O)[C@@H](C)NC(=O)[C@H](CC(C)C)NC(=O)[C@H](CCCNC(=N)N)NC(=O)[C@@H]1CCCN1C(=O)[C@H](CCCNC(=N)N)NC(=O)[C@@H]1CCC(=O)N1)C(=O)N1CCC[C@@H]1C(=O)N[C@H](Cc1ccccc1)C(=O)O) [pE-R-P-R-L-a-H-K-G-P-nle-p-f-OH]
155 nM | [pGlu]RPRL[dL]HKGP[dNle][dA][dF]-OH (SMILES CCCC[C@@H](NC(=O)[C@@H]1CCCN1C(=O)CNC(=O)[C@H](CCCCN)NC(=O)[C@H](Cc1c[nH]cn1)NC(=O)[C@@H](CC(C)C)NC(=O)[C@H](CC(C)C)NC(=O)[C@H](CCCNC(=N)N)NC(=O)[C@@H]1CCCN1C(=O)[C@H](CCCNC(=N)N)NC(=O)[C@@H]1CCC(=O)N1)C(=O)N[C@H](C)C(=O)N[C@H](Cc1ccccc1)C(=O)O) [pE-R-P-R-L-(D-Leu)-H-K-G-P-nle-a-f-OH]
2.1 nM | [pGlu]RPRL[dA][Aib]KGP[dNle][dA][dF]-OH (SMILES CCCC[C@@H](NC(=O)[C@@H]1CCCN1C(=O)CNC(=O)[C@H](CCCCN)NC(=O)C(C)(C)NC(=O)[C@@H](C)NC(=O)[C@H](CC(C)C)NC(=O)[C@H](CCCNC(=N)N)NC(=O)[C@@H]1CCCN1C(=O)[C@H](CCCNC(=N)N)NC(=O)[C@@H]1CCC(=O)N1)C(=O)N[C@H](C)C(=O)N[C@H](Cc1ccccc1)C(=O)O) [pE-R-P-R-L-a-Aib-K-G-P-nle-a-f-OH]
3.2 nM | [pGlu]RPRL[dA]HKGP[dNle][dL][dF]-OH (SMILES CCCC[C@@H](NC(=O)[C@@H]1CCCN1C(=O)CNC(=O)[C@H](CCCCN)NC(=O)[C@H](Cc1c[nH]cn1)NC(=O)[C@@H](C)NC(=O)[C@H](CC(C)C)NC(=O)[C@H](CCCNC(=N)N)NC(=O)[C@@H]1CCCN1C(=O)[C@H](CCCNC(=N)N)NC(=O)[C@@H]1CCC(=O)N1)C(=O)N[C@H](CC(C)C)C(=O)N[C@H](Cc1ccccc1)C(=O)O) [pE-R-P-R-L-a-H-K-G-P-nle-(D-Leu)-f-OH]
2.3 nM | ERPRLAHKGXLAF (pE (pyroglutamic acid) at 1; D-Ala at 6; Pip (pipecolic acid) at 10; D-Nle at 11; D-Ala at 12; D-Phe at 13) [pE-R-P-R-L-a-H-K-G-Pip-nle-a-f-OH]
0.9 nM | [pGlu]RPRL[dS]HKGP[dNle][dA][dF]-OH (SMILES CCCC[C@@H](NC(=O)[C@@H]1CCCN1C(=O)CNC(=O)[C@H](CCCCN)NC(=O)[C@H](Cc1c[nH]cn1)NC(=O)[C@@H](CO)NC(=O)[C@H](CC(C)C)NC(=O)[C@H](CCCNC(=N)N)NC(=O)[C@@H]1CCCN1C(=O)[C@H](CCCNC(=N)N)NC(=O)[C@@H]1CCC(=O)N1)C(=O)N[C@H](C)C(=O)N[C@H](Cc1ccccc1)C(=O)O) [pE-R-P-R-L-s-H-K-G-P-nle-a-f-OH]
8.8 nM | [pGlu]RPRL[dA][dH]KGP[dNle][dA][dF]-OH [pE-R-P-R-L-a-h-K-G-P-nle-a-f-OH]
